# T1: IL13Rα2 deletion mutant D1-1c (15 residues …, 57-71, deleted) (human, UniProt Q14627 27-343)
# T1 construct: also called 突变的IL13Rα2蛋白的D1-1c
# T1 sequence: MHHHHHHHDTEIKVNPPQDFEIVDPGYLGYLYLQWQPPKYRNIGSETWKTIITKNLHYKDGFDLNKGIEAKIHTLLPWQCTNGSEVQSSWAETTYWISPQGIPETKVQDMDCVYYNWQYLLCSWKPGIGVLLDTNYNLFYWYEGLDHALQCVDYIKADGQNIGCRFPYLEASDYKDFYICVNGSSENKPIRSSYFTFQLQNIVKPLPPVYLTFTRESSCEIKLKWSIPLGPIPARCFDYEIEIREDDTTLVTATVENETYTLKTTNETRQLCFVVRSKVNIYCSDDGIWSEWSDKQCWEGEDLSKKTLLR
# T2: IL13Rα2 glycine-scan mutant EP1 (human, UniProt Q14627 27-343, limits assumed)
# T2 chain: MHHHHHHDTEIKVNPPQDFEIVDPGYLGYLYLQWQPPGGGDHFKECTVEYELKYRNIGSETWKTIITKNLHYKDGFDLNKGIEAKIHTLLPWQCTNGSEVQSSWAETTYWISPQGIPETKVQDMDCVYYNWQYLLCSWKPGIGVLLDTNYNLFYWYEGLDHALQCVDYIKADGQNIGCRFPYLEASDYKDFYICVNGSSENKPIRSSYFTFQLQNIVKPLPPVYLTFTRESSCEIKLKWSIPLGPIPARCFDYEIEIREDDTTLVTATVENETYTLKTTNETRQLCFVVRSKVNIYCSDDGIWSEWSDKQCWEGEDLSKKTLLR
# T3: IL13Rα2 glycine-scan mutant EP2 (human, UniProt Q14627 27-343)
# T3 construct: The changed residues (60-62) are inferred in the same way as for EP1
# T3 chain: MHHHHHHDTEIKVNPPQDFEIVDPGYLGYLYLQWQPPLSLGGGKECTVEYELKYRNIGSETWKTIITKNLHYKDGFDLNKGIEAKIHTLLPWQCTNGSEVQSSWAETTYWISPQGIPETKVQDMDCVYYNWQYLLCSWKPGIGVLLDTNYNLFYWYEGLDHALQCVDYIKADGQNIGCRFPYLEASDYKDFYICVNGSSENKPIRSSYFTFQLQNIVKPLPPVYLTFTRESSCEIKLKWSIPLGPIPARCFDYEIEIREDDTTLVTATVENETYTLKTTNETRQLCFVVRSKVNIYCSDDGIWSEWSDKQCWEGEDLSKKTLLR
# T4: IL13Rα2 glycine-scan mutant EP3 (human, UniProt Q14627 27-343)
# T4 construct: The changed residues (63-65) are inferred in the same way as for EP1
# T4 chain: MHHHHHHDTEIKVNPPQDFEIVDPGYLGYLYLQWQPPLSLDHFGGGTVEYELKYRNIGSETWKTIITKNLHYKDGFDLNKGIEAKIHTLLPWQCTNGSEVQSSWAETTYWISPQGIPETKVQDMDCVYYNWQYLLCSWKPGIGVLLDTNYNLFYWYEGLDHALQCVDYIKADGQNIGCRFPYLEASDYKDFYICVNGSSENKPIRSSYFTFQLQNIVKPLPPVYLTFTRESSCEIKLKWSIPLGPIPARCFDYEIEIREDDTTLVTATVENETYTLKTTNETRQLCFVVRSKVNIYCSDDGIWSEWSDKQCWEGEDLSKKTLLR
# T5: IL13Rα2 expressed in lung cancer cells A549 and H460 (fixed, permeabilised cells) (UniProt Q14627 27-380, limits assumed)
# T5 construct: whole, on cells; A549 and H460 are human lung cancer lines; also called A549和H460细胞中的IL13Rα2
# T5 sequence (looked up): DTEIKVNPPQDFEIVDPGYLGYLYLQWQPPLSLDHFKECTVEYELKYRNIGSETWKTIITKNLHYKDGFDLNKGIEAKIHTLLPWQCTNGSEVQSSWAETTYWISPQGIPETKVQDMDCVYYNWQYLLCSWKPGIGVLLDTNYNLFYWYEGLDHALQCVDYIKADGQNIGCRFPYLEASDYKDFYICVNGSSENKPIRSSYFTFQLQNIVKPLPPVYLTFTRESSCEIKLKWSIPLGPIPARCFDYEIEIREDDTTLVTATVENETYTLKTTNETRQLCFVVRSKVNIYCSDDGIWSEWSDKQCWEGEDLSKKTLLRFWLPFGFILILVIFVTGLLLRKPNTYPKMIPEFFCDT
# T6: IL13Rα2 antigen with His tag, expressed from pMAL in E. coli (IL13Rα2-HIS) (human) (UniProt Q14627)
# T6 sequence: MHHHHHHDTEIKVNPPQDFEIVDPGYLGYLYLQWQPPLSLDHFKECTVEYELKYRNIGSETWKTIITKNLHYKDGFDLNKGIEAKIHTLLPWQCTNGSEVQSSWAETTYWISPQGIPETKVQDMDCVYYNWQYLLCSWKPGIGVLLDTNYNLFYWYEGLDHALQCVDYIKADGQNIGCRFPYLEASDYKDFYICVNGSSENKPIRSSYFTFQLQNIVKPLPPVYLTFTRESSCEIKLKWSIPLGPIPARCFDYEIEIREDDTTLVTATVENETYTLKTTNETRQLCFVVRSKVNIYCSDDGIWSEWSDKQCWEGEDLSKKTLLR
# T7: IL13Rα2 antigen with His tag, expressed from pMAL in E. coli (IL13Rα2-HIS) (human, UniProt Q14627 27-343)
# T7 construct: Purified on Ni-NTA; also called IL13Rα2抗原; pMAL-IL13Rα2
# T7 sequence: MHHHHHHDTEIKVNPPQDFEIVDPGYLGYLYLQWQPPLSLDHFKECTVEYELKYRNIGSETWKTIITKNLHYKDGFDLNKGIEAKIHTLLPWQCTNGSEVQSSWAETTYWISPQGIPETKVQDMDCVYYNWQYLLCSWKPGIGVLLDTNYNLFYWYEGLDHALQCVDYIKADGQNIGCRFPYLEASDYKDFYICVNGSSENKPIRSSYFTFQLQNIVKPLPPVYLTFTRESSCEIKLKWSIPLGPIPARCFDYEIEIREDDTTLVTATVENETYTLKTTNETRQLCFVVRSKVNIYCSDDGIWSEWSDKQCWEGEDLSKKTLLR
# Tests used:
# [1] = target: T1, IL13Rα2 deletion mutant D1-1c (15 …); experiment: Western blot
# [2] = target: T2, IL13Rα2 glycine-scan mutant EP1; experiment: Western blot, glycine scan mutants
# [3] = target: T3, IL13Rα2 glycine-scan mutant EP2; experiment: Western blot, glycine scan mutants
# [4] = target: T4, IL13Rα2 glycine-scan mutant EP3; experiment: Western blot, glycine scan mutants
# [5] = target: T5, IL13Rα2 expressed in lung cancer cells …; experiment: immunofluorescence on fixed, permeabilised cells
# [6] = target: T6, IL13Rα2 antigen with His tag, expressed from pMAL in E. coli (IL13Rα2-HIS) (human); experiment: indirect ELISA, antigen coated at 3 μg/ml, serial dilutions of the antibody
# [7] = target: T7, IL13Rα2 antigen with His tag, expressed …; experiment: Western blot (Fig. 24)
Binder,binding result [1],binding result [2],binding result [3],binding result [4],binding result [5],效价 (titer) (fold dilution) [6],binding result [7]
"anti-IL13Rα2 monoclonal antibody mAb15D8 (mouse, from hybridoma) (antibody, mouse IgG1, kappa, V domains shown, Purified on Protein G; also called m15D8; 单克隆抗体15D8) VH: QVTLKESGPGILQPSQTLSLTCSFSGFSLSPSGMGVSWIRQPSGKGLEWLAHIYWDDDKLYNPSLKSRLTISKDTSSNQVFLKITSVDTADTATYYCARRGLRLRAMDYWGQGTSVTVSS VL: DIVLTQSPASLAVSLGQRATISCRASESVDSYGNSFMHWYQQKPGQPPKLLIYRTSNLESGIPARFSGSGSRTDFTLTINPVEADDVATYYCQQSNEDPFTFGSGTKLEIKR",no binding,no binding,no binding,no binding,binds,> 10000,
"recombinantly expressed monoclonal antibody mAb15D8 (293F cells transiently transfected with p15D8MusE) (antibody, mouse IgG1, kappa, V domains shown, also called 重组表达单克隆抗体mAb15D8; 重组表达抗体) VH: QVTLKESGPGILQPSQTLSLTCSFSGFSLSPSGMGVSWIRQPSGKGLEWLAHIYWDDDKLYNPSLKSRLTISKDTSSNQVFLKITSVDTADTATYYCARRGLRLRAMDYWGQGTSVTVSS VL: DIVLTQSPASLAVSLGQRATISCRASESVDSYGNSFMHWYQQKPGQPPKLLIYRTSNLESGIPARFSGSGSRTDFTLTINPVEADDVATYYCQQSNEDPFTFGSGTKLEIKR",,,,,,,binds

# Reference: CN114573694A (SHENZHEN HUAJI BIOTECHNOLOGY CO LTD; UNIV SHANGHAI TRAFFIC, dated 2022)
